From the DeepSol protein solubility set

Assay: soluble on expression in E. coli; label from the status in PepcDB or PDB records

Sequence	soluble on expression in E. coli
MTASERVVVKELSSSLLDMKFMLKKKKQIETKAAKKKEAKLDQLITEKEAEATCSTEILKSSEPKLEICYDYAKLENLKFGRLSFGGFNKEVELLMEYYEKLQNGMLSDSDDDGMDVDDEEMAKSLGGQKLAALDKKSQSKRERRQQNERNEETTGGRRFNIKDIRKRFAADDVADAPERKFMKPAEDC	not soluble
MGSDKIHHHHHHMAYRNGTYVAFHANGTNRPGGNSDIDYYNLLKAWVGKDDDHFTMNNSHDKASAVRDSSKKETLRASLLERLRNSKNMVLIIGDTTLLDDDWVPFEISSAVDTYEIPIIAVYTQYSTPIRNPAALRSRWPDALATRIDSQKAKVIHIPFKKAALNDAISQFSHNNMPKGPLSFYSDEAYESFGIDG	not soluble
MFQVKVRGCMTVYPKVQCISYKIDVDKPTVCELTLCLAPNSDVPADRFSNDLFLVVYNNEQKLVGLTRHVLEERKYSTGMMTVNEGDEVMIVGMGTTTNRKRSTTERVPLIEETNKLSKRFK	not soluble
MNEQYSALRSNVSMLGKVLGETIKDALGEHILERVETIRKLSKSSRAGNDANRQELLTTLQNLSNDELLPVARAFSQFLNLANTAEQYHSISPKGEAASNPEVIARTLRKLKNQPELSEDTIKKAVESLSLELVLTAHPTEITRRTLIHKMVEVNACLKQLDNKDIADYEHNQLMRRLRQLIAQSWHTDEIRKLRPSPVDEAKWGFAVVENSLWQGVPNYLRELNEQLEENLGYKLPVEFVPVRFTSWMGGDRDGNPNVTADITRHVLLLSRWKATDLFLKDIQVLVSELSMVEATPELLALVGEEGAAEPYRYLMKNLRSRLMATQAWLEARLKGEELPKPEGLLTQNEELWEPLYACYQSLQACGMGIIANGDLLDTLRRVKCFGVPLVRIDIRQESTRHTEALGELTRYLGIGDYESWSEADKQAFLIRELNSKRPLLPRNWQPSAETREVLDTCQVIAEAPQGSIAAYVISMAKTPSDVLAVHLLLKEAGIGFAMPVAPLFETLDDLNNANDVMTQLLNIDWYRGLIQGKQMVMIGYSDSAKDAGVMAASWAQYQAQDALIKTCEKAGIELTLFHGRGGSIGRGGAPAHAALLSQPPGSLKGGLRVTEQGEMIRFKYGLPEITVSSLSLYTGAILEANLLPPPEPKESWRRIMDELSVISCDVYRGYVRENKDFVPYFRSATPEQELGKLPLGSRPAKRRPTGGVESLRAIPWIFAWTQNRLMLPAWLGAGTALQKVVEDGKQSELEAMCRDWPFFSTRLGMLEMVFAKADLWLAEYYDQRLVDKALWPLGKELRNLQEEDIKVVLAIANDSHLMADLPWIAESIQLRNIYTDPLNVLQAELLHRSRQAEKEGQEPDPRVEQALMVTIAGIAAGMRNTG	soluble
PVSAMAKKQKNDVADWLMHKQRVQYGGRVYERSGGIKPFLKSIRDGYIGYYLPDQDHGPEHSVFVDFFATRKATLPGLGKIAKLSRSKVLPLFASMNTEDGTFDIEILPAFDLDKGEEQDARTCNEAIEYFVGDKPEQYMWVLQLLHSQEDGNNYYNLFKPRYNTDWQVEK	not soluble
MGSDKIHHHHHHMSSSQQIAKNARKAGNILKTISNEGRSDILYKIHDALKANAHAIEEANKIDLAVAKETGLADSLLKRLDLFKGDKFEVMLQGIKDVAELEDPVGKVKMARELDDGLTLYQVTAPVGVLLVIFESRPEVIANITALSIKSGNAAILKGGKESVNTFREMAKIVNDTIAQFQSETGVPVGSVQLIETRQDVSDLLDQDEYIDLVVPRGSNALVRKIKDTTKIPVLGHADGICSIYLDEDADLIKAKRISLDAKTNYPAGCNAMETLLINPKFSKWWEVLENLTLEGGVTIHATKDLKTAYFDKLNELGKLTEAIQCKTVDADEEQDFDKEFLSLDLAAKFVTSTESAIQHINTHSSRHTDAIVTENKANAEKFMKGVDSSGVYWNASTRFADGFRYGFGAEVGISTSKIHARGPVGLDGLVSYQYQIRGDGQVASDYLGAGGNKAFVHKDLDIKTVTL	soluble
MAKNIQAIRGMNDYLPGETAIWQRIEGTLKNVLGSYGYSEIRLPIVEQTPLFKRAIGEVTDVVEKEMYTFEDRNGDSLTLRPEGTAGCVRAGIEHGLLYNQEQRLWYIGPMFRHERPQKGRYRQFHQLGCEVFGLQGPDIDAELIMLTARWWRALGISEHVTLELNSIGSLEARANYRDALVAFLEQHKEKLDEDCKRRMYTNPLRVLDSKNPEVQALLNDAPALGDYLDEESREHFAGLCKLLESAGIAYTVNQRLVRGLDYYNRTVFEWVTNSLGSQGTVCAGGRYDGLVEQLGGRATPAVGFAMGLERLVLLVQAVNPEFKADPVVDIYLVASGADTQSAAMALAERLRDELPGVKLMTNHGGGNFKKQFARADKWGARVAVVLGESEVANGTAVVKDLRSGEQTAVAQDSVAAHLRTLLG	soluble
MKKRHLLSLLALGISTACYGETYPAPIGPSQSDFGGVGLLQTPTARMAREGELSLNYRDNDQYRYYSASVQLFPWLETTLRYTDVRTRQYSSVEAFSGDQTYKDKAFDLKLRLWEESYWLPQVAVGARDIGGTGLFDAEYLVASKAWGPFDFTLGLGWGYLGTSGNVKNPLCSASDKYCYRDNSYKQAGSIDGSQMFHGPASLFGGVEYQTPWQPLRLKLEYEGNNYQQDFAGKLEQKSKFNVGAIYRVTDWADVNLSYERGNTFMFGVTLRTNFNDLRPSYNDNARPQYQPQPQDAILQHSVVANQLTLLKYNAGLADPQIQAKGDTLYVTGEQVKYRDSREGIIRANRIVMNDLPDGIKTIRITENRLNMPQVTTETDVASLKNHLAGEPLGHETTLAQKRVEPVVPQSTEQGWYIDKSRFDFHIDPVLNQSVGGPENFYMYQLGVMGTADLWLTDHLLTTGSLFANLANNYDKFNYTNPPQDSHLPRVRTHVREYVQNDVYVNNLQANYFQHLGNGFYGQVYGGYLETMFGGAGAEVLYRPLDSNWAFGLDANYVKQRDWRSAKDMMKFTDYSVKTGHLTAYWTPSFAQDVLVKASVGQYLAGDKGGTLEIAKRFDSGVVVGGYATITNVSKEEYGEGDFTKGVYVSVPLDLFSSGPTRSRAAIGWTPLTRDGGQQLGRKFQLYDMTSDRSVNFRLEHHHHHH	not soluble
MGSDKIHHHHHHMKGKHKVIVSTKRLKYEFELRRNLTIIQGDSATGKTTLVDMIRDFVNNPTGTPVEVICDKKCHVVEGSLWKEQLSGISDCIVFIDEGNEFITTVDFADKIQKTDNYYVIVTREALPALPYSVEEIYGIRTSGRYGTLKQSYHEFYRIYGTDTYEDKVSPEIIITEDSNSGYQFFEHVCIENGLKCESMNGKSNVFHYLNKHKGEKILVIADGAAFGSEIDRVLQVIHGRKNVALYLPESFEWMIMDADILKNNTVRSILSNPSEYVESKLYFSWERFFTAILIEQTKDTYLAYAKRKLNPAYLSGAIKESILRKMNIIDLNKKDE	not soluble
METFHWKVRPDMNVVSEPKVVTVKLGDGYEQRRAAGLNNQLSTYSVTIRVRKGEHPSLKAFLERHGGVRAFQWTPPYDWKLIRVVCRKWSASVGALWVTVTADFEQVVN	not soluble
MELVHGISTHFIQSKKFKTNKITVRFTAPLSLDTIAGHMLSASMLETANQMYPTSQDLRRHLASLYGTDMSTNCFRRGQSHIIELTFTYVRDEFLSRKNVLTSQILELVKETLFSPVVVDNGFDPALFEIEKKQLLASLAADMDDSFYFAHKELDKLFFHDERLQLEYSDLRNRILAETPQSSYSCFQEFLANDRIDFFFLGDFNEVEIQNVLESFGFKGRKGDVKVQYCQPYSNILQEGMVRKNVGQSILELGYHYCSKYGDEQHLPMIVMNGLLGGFAHSKLFTNVRENAGLAYTISSELDLFSGFLRMYAGINRENRNQARKMMNNQLLDLKKGYFTEFELNQTKEMIRWSLLLSQDNQSSLIERAYQNALFGKSSADFKSWIAKLEQIDKDAICRVANNVKLQAIYFMEGIE	not soluble
MISILRRGLLVLLAALPLLANAASTPSAHDLVQDTTTRLLADLAANKEKYKQSPNDFYNALNSIVGPVVDADGISRSIMTVKYSRKATPEQMVRFQENFKRSLMQFYGNALLEYNNQGITVSPAKDESGTRTSVDMQVKGNNGAIYPVSYTLEKINDEWKVRNVIINGINIGKLFRDQFADAMQRNGNNLDKTIDGWAGEVAKAKEVTEDAAQKAAQLEHHHHHH	soluble
MGSDKIHHHHHHMSIEAYDQLAIFAVVARERSFTRAAARLGMSQPALSRAMRQLEERLGIRLLARTTRSVSATEAGEHLLRVVAPRFEEIDTELALLSQFRDKPAGRLRITAGEHPAVTILQPALAKILPDHPDIRVEVIVDYGLTDIVAEGYDAGVRLGEQIAKDMIAVRIGPEVRMAVVGSPDYFARHPRPRTPRDLIRHNCIAIRLPTYGGIFPWEFEKKGEELKVRVEGQLVFNNIAMRLDAALRGLGLTYMPEDLVKAHVREGVLVRVLSDWCPPIPGYHLYYPSRRQSSPAFTVLRDALRYLG	not soluble
MKTINLSIFGLGNVGLNLLRIIRSFNEENRLGLKFNVVFVADSLHSYYNERIDIGKVISYKEKGSLDSLEYESISASEALARDFDIVVDATPASADGKKELAFYKETFENGKDVVTANKSGLANFWPEIMEYARSNNRRIRYEATVAGGVPLFSFIDYSVLPSRIKKFRGIVSLTINYFIRELANKREFDDVLSEATKLGIVEKNYKDDLTGLDAARKSVILCNHLYGSSYRLSDVFYEGILDQDRSFGKNERLVTETGIVNGKPSAESRIKSLDSNDYLLTLGKGSLGYQLQTDTNGTLNVSDLYDGPYETAGAVMNDLVILSMFTV	soluble
GPLGSMSAAIAKPSAKPSAHVDPKSAPLKEIPDVLVDPRTMKRYMRGRFLGKGGFAKCYEITDMDTKEVFAGKVVPKSMLLKPHQKEKMSTEIAIHKSLDNPHVVGFHGFFEDDDFVYVVLEICRRRSLLELHKRRKAVTEPEARYFMRQTIQGVQYLHNNRVIHRDLKLGNLFLNDDMDVKIGDFGLATKIEFDGERKKTLCGTPNYIAPEVLCKKGHSFEVDIWSLGCILYTLLVGKPPFETSCLKETYIRIKKNEYSVPRHINPVASALIRRMLHADPTLRPSVAELLTDEFFTSGYAPMRLPTSCLTVPPRFS	soluble
MGHHHHHHSHMPASLALLQPRAMMKTLSSGNCTLSVPAKNSYRMVVLGASRVGKSSIVSRFLNGRFEDQYTPTIEDFHRKVYNIRGDMYQLDILDTSGNHPFPAMRRLSILTGDVFILVFSLDNRESFDEVKRLQKQILEVKSCLKNKTKEAAELPMVICGNKNDHGELCRQVPTTEAELLVSGDENCAYFEVSAKKNTNVDEMFYVLFSMAKLPHEMSPALHRKISVQYGDAFHPRPFCMRRVKEMDAYGMVSPFARRPSVNSDLKYIKAKVLREGQARERDKCTIQ	not soluble
MSLKTFLESLKFPVQEVNKKSSGEKGPGRPPYWEMVFYWTRKPLVGARSVIAGALLPENVDENLFKAAVRLSSPTPHRENPQIPAEFAKYFEGKKLLDPFAGFGSIPLEGLRLGLDVTAVELLPTTYIFLKAVLEYPKKFGKSLVKDVERWGEWITEQLKNDPEIRELYDDDVAVYIGTWEIRCPHCGRWTPAIGNFWLARVKEGHHHHHH	soluble
MSHRNDSSRKHRKSRSIKNDQHYPTVSFDGAESVDIPADEGKSPVSTHLSLASNPTEFKFMDEIALLKRGRIDKDAPKHPYNRRGQQPMMKKEISVTSAHSNSSLPVRSPAIMTLMGGVPEAEKEYNVGKGGLLKISKMKEGGKRYEVSANERFTVFQQTAGQTCLFTFKA	not soluble
MSLVFVACGLNHKTAPIHVREKVALQPAMQDSLLSSLLDLPEVNEAAILSTCNRTEIYCDTNTPEVLGNWLAHEHQLSEELLSQFLYIHQGKEGIKHTLRVASGLDSMMIGEPQILGQMKQAYQHACRLGTVKTQLRPVFEYIFRASKRIRTRSGIGANPVSIAYAAVQLIGQLFKNYHSLSVFLIGSGETASLVAKYLHQHGVHRFLIASRTLENAQKLAETFGGKTLSIGDIPQYLPLADVVISATACPLPFINKSLVEHALEQRNHAPMFLLDLAVPRDIEGNVNELEQVHLYNVDDLQSMIEKGMDERRNAALQAEQLIESELDNYIRWHRSLRAKDVICDYRNQMHTLAQQELQRALKKISAGQNQQDVLNEFSMRLVNKLTHNPTIGLRQIAWDNREDLLDLARYLFDTTANQSLYEEISEGHHHHHH	not soluble
